Where two headings read alike, the source gives them in different places.

The source of these data is patent publication US20240084027A1 (BEIJING MABWORKS, published 2024).

The target of assay [1] is T1, human PD-L1-his protein (human, UniProt Q9NZQ7 19-238).
T1 construct: extracellular domain; also called human PD-L1 (ECD)-his; human PD-L1 protein; not shown: his tag
As to the kind of experiment: SPR on huPDL1 loaded on the chip; 3C2VH6VL5 injected first, anti-PD-L1 sdAb second. As to the method: To further determine the epitopes the two binding arms of the bi- or multi-specific antibodies bind, a competitive SPR binding assay was performed. Briefly, 1 μg/ml human PD-L1 (ECD)-his proteins (Cat #:10084-H08H, Sino Biological, CN) were coupled to a CM5 biosensor chip (Cat #:BR-1005-30, GE Life Sciences, USA). The un-reacted groups were then blocked with 1 M ethanolamine. The anti-PD-L1 antibodies, 3C2VH6VL5 and 56E5VH5VL4, of 5 μg/ml were respectively injected into the SPR running buffer (IBS-EP buffer, pH7.4, Cat #:BR-1006-69, GE Life Sciences, USA) at 30 μl/min. Then, a second anti-PD-L 1 antibody (i.e., the anti-PD-L1 nanobody) of 5 μg/ml was injected into the SPR running buffer at 30 μL/min. The binding affinity was calculated with the RUs of blank controls subtracted, and the association rate (kₐ) and dissociation rate (kd) were determined using the one-to-one Langmuir binding model.

Assay [2] has as its target T2, human CD40 on HEK293A/human CD40 cells (human, UniProt P25942 21-277). As to the kind of experiment: cell-based or functional assay.
Assay [3] deals with T2, human CD40 on HEK293A/human CD40 cells. As to the kind of experiment: cell-based or functional assay. This is another data set of the same source.
The target is the same in assay [4]. As to the kind of experiment: FACS on HEK293A/human CD40 cells. As for the experimental part:
(§1) The bispecific antibodies as prepared above were tested for their binding capability to cell surface human, monkey and mouse CD40 proteins by FACS, using the HEK293A cells prepared in Example 1 that stably expressed human, monkey or mouse CD40. Briefly, a 96-well plate was seeded with 10⁵ HEK293A cells in 50 μl PBS, and then added with 100 μl serially diluted anti-CD40 antibody 714VH2VL2 and the bispecific antibodies of the disclosure (starting concentration at 40 μg/ml). After incubation at 4° C. for 1 h, the plate was washed by PBST for 3 times. The plate was added with 1:500 diluted APC-goat anti-mouse IgG (Cat #:405308, BioLegen, USA), incubated at 4° for 1 h, washed with PBS for 3 times, and subjected to fluorescence measurement in a FACS machine (BD).
(§2) Following the protocols in Example 4 and Example 5, the bi- or multi-specific antibodies of the disclosure were tested for their binding capability to human PD-L1 and human CD40 proteins by FACS using the HEK293A cells prepared in Example 1 that stably expressed human PD-L1 or human CD40.

Assay [5] shares this target. Briefly: FACS on HEK293A/human CD40 cells. As to the method: as §1, §2
The source holds these as a separate data set.

Assay [6] addresses T3, human PD-L1 on HEK293A/human PD-L1 cells (human, UniProt Q9NZQ7 19-290). Briefly: FACS on HEK293A/human PD-L1 cells. Summed up:
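HEK293A cells stably expressing the target (10⁵ cells/well) incubated with serially diluted antibodies from 40 μg/ml, 1 h at 4 °C. After PBST washes, bound antibody detected with 1:500 APC-goat anti-mouse IgG for 1 h at 4 °C and read by flow cytometry.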

For another assay, the target named is T4, human CD40-his protein (human, UniProt P25942 21-193).
T4 construct: Bought protein; also called human CD40 protein; CD40 molecules; not shown: his tag
As to the kind of experiment: SPR (BIAcore 8K), human CD40-his coupled to CM5 chip, antibody injected. On the technique in general: Surface plasmon resonance follows binding to a sensor surface in real time, without labels.

The target of assay [7] is T1, human PD-L1-his protein. Briefly: SPR (BIAcore 8K), human PD-L1-his coupled to CM5 chip, antibody injected.
Assay [8] addresses T3, human PD-L1 on HEK293A/human PD-L1 cells. Briefly: FACS blocking assay on HEK293A/human PD-L1 cells; blocked ligand PD-1-Fc. The method, boiled down: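 Cells preincubated with serially diluted antibody 1 h at 4° C, washed, then exposed to 200 μg/ml PD-1-Fc for 1 h at 4° C. Bound PD-1-Fc detected with PE-anti-human IgG and read by flow cytometry.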
The target is the same in assay [9]. The assay is described as above. As for the experimental part: (§3) The bispecific antibodies were tested for their blocking activity on PD-1-PD-L1 binding by FACS using the HEK293A cells stably expressing human PD-L1 molecules as prepared in Example 1. Briefly, a 96-well plate was seeded with 10⁵ HEK293A/human PD-L1 cells in 100 μl cell culture medium, and then added with 50 μl serially diluted anti-PD-L1 antibody 56E5VH5VL4 or MBS307-3 molecules. After incubation at 4° C. for 1 h. the plate was washed with PBST for 3 times, added with 100 μl 200 μg/ml PD-1-Fc fusion proteins (Cat #:10377-10211, Sino Biological, CN), incubated at 4° C. for 1 h, washed with PBST for 3 times, and added with 1:500 diluted PE-goat anti-human IgG (Cat #:PAI-86078, Thermofisher, USA). After incubation at 4° C. for 1 h, the plate was washed with PBST for 3 times and measured for fluorescence using a FACS machine (BD).
(§4) Following the protocol of Example 7, the bi- or multi-specific antibodies were tested for their capability to block PD-1-PD-L1 binding by FACS, using the HEK293A cells prepared in Example 1 that stably expressed human PD-L1 molecules.
The source holds these as a separate data set.

Assay [10] has the same target. The description is as above. As for the experimental part: as §3, §4
This is another data set of the same source.

T2 sequence (P25942 21-277 limits assumed): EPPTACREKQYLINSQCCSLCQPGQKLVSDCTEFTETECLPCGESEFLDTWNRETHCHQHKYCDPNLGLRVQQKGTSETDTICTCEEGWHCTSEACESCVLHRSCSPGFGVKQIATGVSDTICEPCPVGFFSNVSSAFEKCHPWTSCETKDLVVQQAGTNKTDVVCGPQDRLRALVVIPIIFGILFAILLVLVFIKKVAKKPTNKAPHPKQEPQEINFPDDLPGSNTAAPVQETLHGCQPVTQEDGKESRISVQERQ
T3 sequence (Q9NZQ7 19-290 limits assumed): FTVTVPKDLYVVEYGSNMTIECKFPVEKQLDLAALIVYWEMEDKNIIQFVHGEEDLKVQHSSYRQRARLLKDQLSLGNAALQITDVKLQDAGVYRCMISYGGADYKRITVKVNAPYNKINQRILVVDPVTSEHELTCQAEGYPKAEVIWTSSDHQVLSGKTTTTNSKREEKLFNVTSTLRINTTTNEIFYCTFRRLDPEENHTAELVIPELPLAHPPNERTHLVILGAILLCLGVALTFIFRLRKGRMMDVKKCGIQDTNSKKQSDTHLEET
T1 sequence (Q9NZQ7 19-238): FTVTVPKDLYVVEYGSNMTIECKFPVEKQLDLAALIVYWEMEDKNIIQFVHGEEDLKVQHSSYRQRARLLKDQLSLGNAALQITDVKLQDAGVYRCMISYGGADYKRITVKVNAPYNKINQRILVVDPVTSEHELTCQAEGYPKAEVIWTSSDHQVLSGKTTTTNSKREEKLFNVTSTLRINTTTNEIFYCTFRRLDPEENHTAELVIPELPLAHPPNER
T4 sequence (P25942 21-193 limits assumed): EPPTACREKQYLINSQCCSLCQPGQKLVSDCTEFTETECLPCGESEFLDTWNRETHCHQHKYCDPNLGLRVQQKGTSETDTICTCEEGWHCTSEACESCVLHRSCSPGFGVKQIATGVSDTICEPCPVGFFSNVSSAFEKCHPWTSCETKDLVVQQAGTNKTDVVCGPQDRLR

B1: anti-PD-L1 nanobody (VHH)
VHH: QVQLLESGGGLVQPGGSLRLSCAASGFAFSDYAMTWVRQAPGKGLEWVSTINSGGQSSSYLDSVKGRFTSSRDNSKNTLYLQMNSLRAEDTAVYYCAKGVYMPWKAPKGQGTLVTVSS
notes: also called monospecific anti-PD-L1 nanobody
Consider B1, for which the binding result in the assay with human PD-L1-his protein [1] is “binds”.

B2: MBS307-9 (bispecific antibody, human IgG1, kappa, L234A L235A)
heavy 1: QVQLQESGPGLVKPSDTLSLTCAVSGYSITTNYYWNWIRQPPGKGLEWMGYIKYDGSNNYNPSLKNRITISVDTSKNQFSLKLSSVTAVDTAVYYCARLDYWGQGTLVTVSSASTKGPSVFPLAPSSKSTSGGTAALGCLVKDYFPEPVTVSWNSGALTSGVHTFPAVLQSSGLYSLSSVVTVPSSSLGTQTYICNVNHKPSNTKVDKKVEPKSCDKTHTCPPCPAPEAAGGPSVFLFPPKPKDTLMISRTPEVTCVVVDVSHEDPEVKFNWYVDGVEVHNAKTKPREEQYNSTYRVVSVLTVLHQDWLNGKEYKCKVSNKALPAPIEKTISKAKGQPREPQVYTLPPSREEMTKNQVSLWCLVKGFYPSDIAVEWESNGQPENNYKTTPPVLDSDGSFFLYSKLTVDKSRWQQGNVFSCSVMHEALHNHYTQKSLSLSPGGGGGQVQLQESGPGLVKPSQTLSLTCTVSGGSITSDYWNWIRQHPGNKLEYMGYISYTGSTYYNPSLKSRISITRDTSKNQFSLKLSSVTTADTAVYYCARYRDWDVRAMDYWGQGTTVTVSSGGGGSGGGGSGGGGSGGGGSDIVMTQSPDSLAVSLGEKVTMNCKSSQSLLISGNQKNFLTWYQQKPGQPPKLLIYWASTRESGVPDRFSGSGSGTDFTLTISSLQAEDEAVYYCQNDFGFPFTFGQGTKLTAK
heavy 2: QVQLQESGPGLVKPSDTLSLTCAVSGYSITTNYYWNWIRQPPGKGLEWMGYIKYDGSNNYNPSLKNRITISVDTSKNQFSLKLSSVTAVDTAVYYCARLDYWGQGTLVTVSSASTKGPSVFPLAPSSKSTSGGTAALGCLVKDYFPEPVTVSWNSGALTSGVHTFPAVLQSSGLYSLSSVVTVPSSSLGTQTYICNVNHKPSNTKVDKKVEPKSCDKTHTCPPCPAPEAAGGPSVFLFPPKPKDTLMISRTPEVTCVVVDVSHEDPEVKFNWYVDGVEVHNAKTKPREEQYNSTYRVVSVLTVLHQDWLNGKEYKCKVSNKALPAPIEKTISKAKGQPREPQVYTLPPSREEMTKNQVSLSCAVKGFYPSDIAVEWESNGQPENNYKTTPPVLDSDGSFFLVSKLTVDKSRWQQGNVFSCSVMHEALHNHYTQKSLSLSPGGGGGQVQLVQSGAEVKKPGASVKVSCKASGYTFTDYHVNWVRQAPGQGLEWIGWIFPGSGRTFYTDKFKGRVTMTVDTSTSTVYMELSSLRSEDTAVYYCATDYGTSGYGLVYWGQGTTVTVSSGGGGSGGGGSGGGGSGGGGSDIQMTQSPSSLSASVGDRVTITCKASDRINNWLAWYQQKPGKAPKLLISGATSLETGVPSRFSGSGSGTDFTLTISSLQPEDEATYYCQQYWNIPFTFGQGTKLTAK
light: DVVLTQSPLSLPVTLGQPASISCRSSQSLENSNGNTFLNWFQQRPGQSPRLLIYKVSNRFSGVPDRFSGSGSGTDFTLKISRVEAEDVGVYYCLQVTHVPFTFGQGTKLEIKRTVAAPSVFIFPPSDEQLKSGTASVVCLLNNFYPREAKVQWKVDNALQSGNSQESVTEQDSKDSTYSLSSTLTLSKADYEKHKVYACEVTHQGLSSPVTKSFNRGEC
notes: Asymmetric: knob chain with the 56E5VH5VL4 scFv, hole chain with the 3C2VH6VL5 scFv, linker 4 (short linker); also called MBS307-9-1 + MBS307-9-2
With B2, the results for the “EC50 (read off the curve); HEK-Blue/CD40 reporter, OD630, plate coated with human PD-L1-his” value in assay [2] and in assay [3] were about 0.02 µg/mL and about 0.01 µg/mL, respectively. Also, the concentration for a half-maximal effect (EC50 (read off the curve)) (commonly the midpoint of the concentration-response curve) in assay [4] was about 0.07 µg/mL; in assay [5], about 0.02 µg/mL; in [6], about 0.2 µg/mL. Also, the figures for the Kd with human CD40-his protein and in the assay with human PD-L1-his protein [7] were 2.9 nM and 0.683 nM, respectively. The “IC50 (read off the curve)” value in assay [8] is about 0.6 µg/mL; in assay [9], about 0.2 µg/mL; in assay [10], about 0.2 µg/mL.
